Test results published in the Human Domainome abundance scans (Beltran et al. 2025).

B1: Far upstream element-binding protein 1, residues 98 to 169; numbered along this chain, Q96AE4 (parent)
chain: RSVMTEEYKVPDGMVGFIIGRGGEQISRIQQESGCKIQIAPDSGGLPERSCMLTGTPESVQSAKRLLDQIVE

Variants of: B1
Test: abundance fitness (aPCA) (normalised: wild type 0, dead -1); higher = more abundant; growth selection in yeast, the domain comes from the species named
Settings: Homo sapiens

Abundance fitness, by site and new letter:
P47: V -0.038; A -0.012; E -0.025; D -0.007; R -0.054
Q61: W -0.058; G 0.001; Y -0.049; L -0.003; R -0.002; S -0.009; C -0.003; P -0.463; F -0.031; A -0.003; V -0.035; E 0.052; N -0.021; M -0.007; I -0.029; T -0.002; D 0.003; H -0.051
L53: A -0.719; N -1.05; R -1.05; T -0.923; W -1.03; K -0.835; D -1; M -0.095; S -0.899; G -1.1; H -0.99; Q -1.1; V -0.132; Y -1.67; F -0.349; P -1.03; I 0.048
G55: S -0.44; K -1.05; L -1.51; D -0.936; C -1.24; F -1.41; H -0.721; N -1.1; E -1.12; P -1.13; I -1.12; T -1.32; A -0.534; V -1.31
E48: D -0.059; F -0.015; K -0.084; C -0.119; Y 0.02; L 0.001; M -0.092; W 0.004; I -0.057; P -0.088; V -0.035; H -0.114; A -0.041; N -0.019; S -0.057; T -0.028; Q -0.085; G -0.045
R65: G -0.027; I -0.051; F 0.017; D -0.043; E -0.015; C -0.029; K -0.006; H -0.025
C51: L -0.019; P -0.597; Y -0.116; Q -0.818; K -1.12; M 0.017; T -0.093; R -0.984; H -0.718; S -0.284; A -0.06; W -0.108; E -1; V 0.006; F 0.049; D -0.956; G -0.417
S50: T -0.015; V -0.017; Y -0.117; N 0.038; D -0.023; M -0.018; W -0.174; R -0.011; G -0.054; A -0.048; F -0.177; C -0.015; Q -0.025; E -0.06; L -0.002; K -0.019; I 0.07; H -0.105; P -0.043
L46: Y -0.093; H -0.011; C -0.026; M -0.031; I -0.092; D -0.006; W -0.132; K -0.006; N -0.023; Q -0.001; G -0.01; T -0.006; R -0.006; F -0.004; E 0.016; P -0.124
T54: M 0; C -0.085; V -0.05; L -0.087; A -0.081; P -1.23; K 0.01; F -0.105; Y -0.046; Q -0.067; W -0.185; D -0.191; G -0.282; N -0.069; I -0.054; H -0.056; S -0.027; E -0.028
E58: K -0.035; S -0.041; Y -0.05; G -0.05; D 0.03; V -0.075; N -0.107; R -0.08; H -0.052; I -0.069; P -0.065; Q 0.001; L -0.072; T -0.038; W -0.125; A -0.051; C -0.17
